The assay has as its target T1, human progastrin (full length, recombinant, produced in E. coli, tag removed) (human).
T1 construct: also called hPG; PG
T1 chain: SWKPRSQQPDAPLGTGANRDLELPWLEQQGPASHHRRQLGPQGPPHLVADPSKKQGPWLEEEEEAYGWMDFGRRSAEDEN
In words: epitope mapping (details not given).

B1: mAb16 (hybridoma 1E9D9B6) (antibody, V domains shown)
VH: QVQLQQSGAELVKPGASVKLSCKASGYTFTSYYMYWVKQRPGQGLEWIGEINPSNGGTNFNEKFKSKATLTVDKSSSTAYMQLSSLTSEDSAVYYCTRGGYYPFDYWGQGTTLTVSS
VL: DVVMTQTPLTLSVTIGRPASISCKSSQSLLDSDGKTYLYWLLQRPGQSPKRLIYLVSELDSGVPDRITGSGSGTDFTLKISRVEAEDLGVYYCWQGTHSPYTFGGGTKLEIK
notes: Murine variable domains (mVH 16 / mVL 16)
Turning to B1, the binding result is listed as “binds”.

B2: mAb3 (hybridoma 6B51311C10) (antibody, V domains shown)
VH: EVQLQQSGTVLARPGASVKMSCKASGYIFTSYWVHWVKQRPGQGLEWIGGFYPGNSDSRYNQKFKGKATLTAVTSASTAYMDLSSLTNEDSAVYFCTRRDSPQYWGQGTTLTVSS
VL: DVLMTQTPLSLPVSLGDQASISCRSSQSIVHSNGNTYLEWYLQKPGQSPKLLIYKVSNRFSGVPDRFSGSGSGTDFTLKISRLEAEDLGVYYCFQGSHVPFTFGGGTKLEIK
notes: Murine variable domains (mVH 3 / mVL 3) of the hybridoma antibody
With B2, the binding result is “binds”.

B3: mAb13 (hybridoma 2C6C3C7) (antibody, V domains shown)
VH: EVQLVESGGGLVQPGGSLKLSCAASGFIFSSYGMSWVRQSPDRRLELVASINTFGDRTYYPDSVKGRFTISRDNAKNTLYLQMTSLKSEDTAIYYCARGTGTYWGQGTTLTVSS
VL: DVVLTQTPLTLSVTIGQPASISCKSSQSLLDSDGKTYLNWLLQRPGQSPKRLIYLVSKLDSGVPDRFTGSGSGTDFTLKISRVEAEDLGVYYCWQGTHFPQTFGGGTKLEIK
notes: Murine variable domains (mVH 13 / mVL 13)
Regarding B3, the binding result is given as “binds”.

B4: mAb4 (hybridoma 20D2C3G2) (antibody, V domains shown)
VH: QVQLQQSGAELMKPGASVKISCKATGYTFSSSWIEWLKQRPGHGLEWIGEFLPGSGSTDYNEKFKGKATFTADTSSDTAYMLLSSLTSEDSAVYYCATDGNYDWFAYWGQGTLVTVSA
VL: DLVMTQTPLSLPVSLGDQASISCRSSQSLVHSSGVTYLHWYLQKPGQSPKLLIYKVSNRFSGVPDRFSGSGSGTDFTLKISRVEAEDLGVYFCSQSTHVPPTFGSGTKLEIK
notes: Murine variable domains (mVH 4 / mVL 4)
For B4, the binding result was “binds”.

For the origin of these results see patent US20200200751A1 (ECS PROGASTRIN, published 2020).
